First the molecules themselves.
B1: IMPA1 (parent)
chain: FIGEESVAAGEKSILTDNPTWIID
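Note: lentivirally expressed fusions sorted by FACS into six bins by GFP to DsRed ratio, PSI derived from sequencing read proportions per bin multiplied by bin number.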

In the series the parent is B1. Briefly: protein stability index of a GFP-peptide fusion (GPS, HEK-293T) (PSI 1-6); higher = more stable. The settings on record: c terminus: a fixed tail appended.
Turning to FIGEESVAAGEASILTDNPTWIID [K12A], the protein stability index was 2.25.
Regarding FIGEESVAAGELSILTDNPTWIID [K12L], the protein stability index turned out to be 2.25.
As for FIGEESVAAGESSILTDNPTWIID [K12S], the figure is 2.12; as for FIGEESVAAGEKSKLTDNPTWIID [I14K], 2.54.
In the case of FIGEESVAAGEKSLLTDNPTWIID [I14L], the protein stability index stood at 1.78.
With FIGEESVAAGEKSFLTDNPTWIID [I14F] the figure was 1.5; with FIGEESVAAGEKSPLTDNPTWIID [I14P], 2.33.
As for FIGEESVAAGEKSMLTDNPTWIID [I14M], the figure is 2.15; as for FIGEESVAAGEKSVLTDNPTWIID [I14V], 2.23.
With FIGEESVAAGEKSNLTDNPTWIID [I14N] the figure was 2.23; with FIGEESVAAGEKSQLTDNPTWIID [I14Q], 2.01; with FIGEESVAAGEKSALTDNPTWIID [I14A], 2.47.
Turning to FIGEESVAAGEKSELTDNPTWIID [I14E], the protein stability index turned out to be 2.31.
For the variant FIGEESVAAGEKSTLTDNPTWIID [I14T], the protein stability index worked out at 2.6.
For FIGEESVAAGEKSHLTDNPTWIID [I14H], the protein stability index is 2.44.
As to FIGEESVAAGEKSYLTDNPTWIID [I14Y], the protein stability index stood at 1.91.
With FIGEESVAAGEKSDLTDNPTWIID [I14D] the figure was 2.34.
With FIGEESVAAGEKSSLTDNPTWIID [I14S] the figure was 2.32.
As for FIGEESVAAGEKSCLTDNPTWIID [I14C], the figure is 1.68.
For FIGEESVAAGEKSRLTDNPTWIID [I14R], the protein stability index is 1.99.
As for FIGEESVAAGEKSWLTDNPTWIID [I14W], the figure is 2.22.
As for FIGEESVAAGEKSGLTDNPTWIID [I14G], the figure is 2.38.
With FIGEESVAAGEKSILTDNSTWIID [P19S] the figure was 2.38; with FIGEESVAAGEKSILTDNITWIID [P19I], 2.32.
Turning to FIGEESVAAGEKSILTDNCTWIID [P19C], the protein stability index came to 1.76.
For the variant FIGEESVAAGEKSILTDNDTWIID [P19D], the protein stability index came to 3.09.
Take FIGEESVAAGEKSILTDNATWIID [P19A]: the protein stability index worked out at 2.41.
With FIGEESVAAGEKSILTDNGTWIID [P19G] the figure was 3.13.
With FIGEESVAAGEKSILTDNQTWIID [P19Q] the figure was 2.92.
With FIGEESVAAGEKSILTDNRTWIID [P19R] the figure was 1.96; with FIGEESVAAGEKSILTDNLTWIID [P19L], 1.97.
FIGEESVAAGEKSILTDNETWIID [P19E]: the protein stability index worked out at 3.51.
With FIGEESVAAGEKSILTDNKTWIID [P19K] the figure was 2.2; with FIGEESVAAGEKSILTDNHTWIID [P19H], 3.02.
With FIGEESVAAGEKSILTDNNTWIID [P19N] the figure was 2.89; with FIGEESVAAGEKSILTDNMTWIID [P19M], 2.27; with FIGEESVAAGEKSILTDNFTWIID [P19F], 2.35.
As to FIGEESVAAPEKSILTDNPTWIID [G10P], the protein stability index came to 2.15.
As for FIGEESVAAEEKSILTDNPTWIID [G10E], the figure is 2.8; as for FIGEESVAATEKSILTDNPTWIID [G10T], 2.19; as for FIGEESVAAHEKSILTDNPTWIID [G10H], 1.87.
As for FIGEESVAAREKSILTDNPTWIID [G10R], the figure is 1.97.
With FIGEESVAADEKSILTDNPTWIID [G10D] the figure was 2.48.
Regarding FIGEESVAAKEKSILTDNPTWIID [G10K], the protein stability index came out at 2.01.
With FIGEESVAAAEKSILTDNPTWIID [G10A] the figure was 2.18; with FIGEESVAACEKSILTDNPTWIID [G10C], 2.21.
As for FIGEESVAALEKSILTDNPTWIID [G10L], the protein stability index turned out to be 2.41.
For the variant FIGEESVAAYEKSILTDNPTWIID [G10Y], the protein stability index was determined as 1.85.
With FIGEESVAAIEKSILTDNPTWIID [G10I] the figure was 2.43.
As to FIGEESVAAMEKSILTDNPTWIID [G10M], the protein stability index was determined as 2.2.
In the case of FIGEESVAAWEKSILTDNPTWIID [G10W], the protein stability index is 1.83.
With FIGEESVAAVEKSILTDNPTWIID [G10V] the figure was 2.37.
With FIGEESVAAFEKSILTDNPTWIID [G10F] the figure was 1.85; with FIGEESVAANEKSILTDNPTWIID [G10N], 2.21; with FIGEESVAAQEKSILTDNPTWIID [G10Q], 2.67.
With FIGEESVAASEKSILTDNPTWIID [G10S] the figure was 2.
On to FIGEESVAAGSKSILTDNPTWIID [E11S], for which the protein stability index worked out at 2.17.
As for FIGEESVAAGNKSILTDNPTWIID [E11N], the protein stability index was 2.04.
With FIGEESVAAGPKSILTDNPTWIID [E11P] the figure was 1.53.
With FIGEESVAAGQKSILTDNPTWIID [E11Q] the figure was 1.98; with FIGEESVAAGYKSILTDNPTWIID [E11Y], 1.93.
As for FIGEESVAAGRKSILTDNPTWIID [E11R], the figure is 1.49.
On to FIGEESVAAGHKSILTDNPTWIID [E11H], for which the protein stability index came to 1.7.
Take FIGEESVAAGAKSILTDNPTWIID [E11A]: the protein stability index came out at 1.86.
With FIGEESVAAGFKSILTDNPTWIID [E11F] the figure was 2.57; with FIGEESVAAGVKSILTDNPTWIID [E11V], 1.92.
As for FIGEESVAAGLKSILTDNPTWIID [E11L], the figure is 1.77; as for FIGEESVAAGDKSILTDNPTWIID [E11D], 2.3.
With FIGEESVAAGMKSILTDNPTWIID [E11M] the figure was 2.01; with FIGEESVAAGKKSILTDNPTWIID [E11K], 1.89; with FIGEESVAAGIKSILTDNPTWIID [E11I], 2.1.
For FIGEESVAAGCKSILTDNPTWIID [E11C], the protein stability index was 1.98.
As to FIGEESVAAGGKSILTDNPTWIID [E11G], the protein stability index came to 1.96.
As for FIGEESVAAGTKSILTDNPTWIID [E11T], the figure is 2.3.
With FIGEESVAAGWKSILTDNPTWIID [E11W] the figure was 1.37; with FIGEESVAAGEKSIGTDNPTWIID [L15G], 2.77; with FIGEESVAAGEKSITTDNPTWIID [L15T], 2.33.
With FIGEESVAAGEKSIRTDNPTWIID [L15R] the figure was 2.17; with FIGEESVAAGEKSIKTDNPTWIID [L15K], 2.47; with FIGEESVAAGEKSICTDNPTWIID [L15C], 2.3.
As to FIGEESVAAGEKSISTDNPTWIID [L15S], the protein stability index is 2.33.
With FIGEESVAAGEKSIMTDNPTWIID [L15M] the figure was 2.15; with FIGEESVAAGEKSIYTDNPTWIID [L15Y], 2.05.
As for FIGEESVAAGEKSIFTDNPTWIID [L15F], the figure is 2.06.
As for FIGEESVAAGEKSIITDNPTWIID [L15I], the figure is 1.98; as for FIGEESVAAGEKSIDTDNPTWIID [L15D], 2.83; as for FIGEESVAAGEKSIPTDNPTWIID [L15P], 2.57.
For the variant FIGEESVAAGEKSIVTDNPTWIID [L15V], the protein stability index was determined as 2.52.
FIGEESVAAGEKSIWTDNPTWIID [L15W]: the protein stability index was found to be 2.48.
As for FIGEESVAAGEKSIQTDNPTWIID [L15Q], the figure is 2.28; as for FIGEESVAAGEKSIHTDNPTWIID [L15H], 2.22; as for FIGEESVAAGEKSIETDNPTWIID [L15E], 2.61.
With FIGEESVAAGEKSIATDNPTWIID [L15A] the figure was 2.33; with FIGEESVAAGEKSINTDNPTWIID [L15N], 2.78.

Values taken from the supplement of paper PMC10567573.
